How the values were obtained:
Assay in all cases: SDS-PAGE and Western blot of whole cells (oligomer bands that withstand SDS); 1 OD600 of induced cells in SDS sample buffer, 4~12% SDS-PAGE, PVDF, anti-Flag tag antibody; cells treated with proteinase K or not; positions of monomeric, dimeric and trimeric forms called putative
[1] = target: SadA^1292 fused with Flag×3 and the UreB epitopes UreB158–172aa and UreB349–363aa (from pSadBA^1292-FU2) (Salmonella typhimurium | Helicobacter pylori SS1) (UniProt P69996)
[2] = target: SadA^1292 fused with N-terminal Flag×3-UreBm-mScarlet (from pSadBA^1292-FUM) (Salmonella typhimurium | Helicobacter pylori SS1) (UniProt P69996)
[3] = target: SadA^877 fused with N-terminal Flag×3-mScarlet (from pSadBA^877-FM) (Salmonella typhimurium)
[4] = target: SadA^1171 fused with Flag×3 and the UreB epitopes UreB158–172aa and UreB349–363aa (from pSadBA^1171-FU2) (Salmonella typhimurium | Helicobacter pylori SS1) (UniProt P69996)
[5] = target: SadA^877 fused with Flag×3 and the UreB epitopes UreB158–172aa and UreB349–363aa (from pSadBA^877-FU2) (Salmonella typhimurium | Helicobacter pylori SS1) (UniProt P69996)
[6] = target: SadA^644 fused with Flag×3 and the UreB epitopes UreB158–172aa and UreB349–363aa (from pSadBA^644-FU2) (Salmonella typhimurium | Helicobacter pylori SS1) (UniProt P69996)
[7] = target: SadA^1292 fused with N-terminal Flag×3-mScarlet (from pSadBA^1292-FM) (Salmonella typhimurium)

**Q.** Which stoichiometry N [1] does the source give for “SadA^1292 fused with Flag×3 and the UreB epitopes UreB158–172aa and UreB349–363aa (from pSadBA^1292-FU2) (from UniProt P69996)” here?
**A.** Its stoichiometry N is 3.

**Q.** How did the stoichiometry N [2] turn out when “SadA^1292 fused with N-terminal Flag×3-UreBm-mScarlet (from pSadBA^1292-FUM) (from UniProt P69996 111-377)” was run?
**A.** Its stoichiometry N is 3.

**Q.** With “SadA^877 fused with N-terminal Flag×3-mScarlet (from pSadBA^877-FM)” as the substance, how does the stoichiometry N [3] read?
**A.** Its stoichiometry N is 3.

**Q.** “SadA^1171 fused with Flag×3 and the UreB epitopes UreB158–172aa and UreB349–363aa (from pSadBA^1171-FU2) (from UniProt P69996)” was tested. Which stoichiometry N [4] did it give?
**A.** Its stoichiometry N is 3.

**Q.** How did the stoichiometry N [5] turn out when “SadA^877 fused with Flag×3 and the UreB epitopes UreB158–172aa and UreB349–363aa (from pSadBA^877-FU2) (from UniProt P69996)” was run?
**A.** Its stoichiometry N is 3.

**Q.** “SadA^644 fused with Flag×3 and the UreB epitopes UreB158–172aa and UreB349–363aa (from pSadBA^644-FU2) (from UniProt P69996)” was tested. Which stoichiometry N [6] did it give?
**A.** The stoichiometry N was 3.

**Q.** For “SadA^1292 fused with N-terminal Flag×3-mScarlet (from pSadBA^1292-FM)”, which stoichiometry N [7] is on record?
**A.** Its stoichiometry N is 3.

Source: publication PMC11054257
